The results in this text go back to paper PMC10247153.

The target of data set [1] is H3K4me3 187 bp mononucleosome (human) (UniProt P68431). The data set is described as follows: native gel or EMSA; 100 nM nucleosome with various concentrations of KDM5C; 50 mM HEPES pH 7.5, 50 mM KCl, 1 mM BME, 0.01% Tween-20, 0.01% BSA, 5% sucrose; 1 hr on ice; native 7.5% PAGE at 4 °C; apparent dissociation constants from a cooperative binding fit. A general note: A gel shift assay detects complexes by their altered migration in electrophoresis.

In data set [2] the target is unmodified 147 bp mononucleosome (human) (UniProt P68431). The data set is described as above.
Data set [3] concerns the target H3K4me3 147 bp mononucleosome (human) (UniProt P68431). The description is as above.
For data set [4], the target named is unmodified 187 bp mononucleosome (human) (UniProt P68431). The description is as above.
Data set [5] concerns KDM5C1-839 (Homo sapiens). In words: EMSA. As to conditions: EMSA: 50 mM HEPES pH 7.5, 50 mM KCl, 1 mM BME, 0.01% Tween-20, 0.01% BSA, 5% sucrose, 1 h on ice, 100 nM nucleosome or 147 bp DNA, 500 nM 20 bp DNA, gel at 4 C.; for Kd: apparent Kd.
Data set [6] deals with KDM5C1-839 A388P (Homo sapiens). The data set is described as follows: EMSA. Conditions: apparent Kd, EMSA: 50 mM HEPES pH 7.5, 50 mM KCl, 1 mM BME, 0.01% Tween-20, 0.01% BSA, 5% sucrose, 1 h on ice, 100 nM nucleosome or 147 bp DNA, gel at 4 C.
Data set [7] concerns KDM5C1-839 ΔAP (Homo sapiens). In words: EMSA. As to conditions: apparent Kd, EMSA: 50 mM HEPES pH 7.5, 50 mM KCl, 1 mM BME, 0.01% Tween-20, 0.01% BSA, 5% sucrose, 1 h on ice, 100 nM nucleosome or 147 bp DNA, 500 nM 20 bp DNA, gel at 4 C.
The subject of data set [8] is KDM5C1-839 D87G (Homo sapiens). In words: EMSA. Conditions: apparent Kd, EMSA: 50 mM HEPES pH 7.5, 50 mM KCl, 1 mM BME, 0.01% Tween-20, 0.01% BSA, 5% sucrose, 1 h on ice, 100 nM nucleosome or 147 bp DNA, gel at 4 C.
Data set [9] deals with KDM5C1-839 D343A (Homo sapiens). The data set is described as follows: EMSA. Conditions: apparent Kd, EMSA: 50 mM HEPES pH 7.5, 50 mM KCl, 1 mM BME, 0.01% Tween-20, 0.01% BSA, 5% sucrose, 1 h on ice, 100 nM nucleosome or 147 bp DNA, gel at 4 C.
In data set [10] the test system is KDM5C1-839 ΔAP A388P (Homo sapiens). In words: EMSA. Conditions: apparent Kd; lower limit, saturation unattainable; EMSA: 50 mM HEPES pH 7.5, 50 mM KCl, 1 mM BME, 0.01% Tween-20, 0.01% BSA, 5% sucrose, 1 h on ice; 100 nM nucleosome or 147 bp DNA, 500 nM 20 bp DNA; gel at 4 C.
Data set [11] relates to KDM5C ARID K101A/R107A (Homo sapiens). The data set is described as follows: EMSA. As to conditions: EMSA: 50 mM HEPES pH 7.5, 50 mM KCl, 1 mM BME, 0.01% Tween-20, 0.01% BSA, 5% sucrose, 1 h on ice; 100 nM nucleosome or 147 bp DNA, 500 nM 20 bp DNA; gel at 4 C.; scale: fold reduction.
In data set [12] the target is H3K4me3 187 bp mononucleosome (human) (UniProt P68431).
The target of data set [13] is H3K4me3 147 bp mononucleosome (human) (UniProt P68431).
[14] abbreviates: histone H3K4me3, 500 nM 20 bp DNA.
[15] abbreviates: lower limit, saturation unattainable.

Sequence of KDM5C^1–839 (P41229 1-839): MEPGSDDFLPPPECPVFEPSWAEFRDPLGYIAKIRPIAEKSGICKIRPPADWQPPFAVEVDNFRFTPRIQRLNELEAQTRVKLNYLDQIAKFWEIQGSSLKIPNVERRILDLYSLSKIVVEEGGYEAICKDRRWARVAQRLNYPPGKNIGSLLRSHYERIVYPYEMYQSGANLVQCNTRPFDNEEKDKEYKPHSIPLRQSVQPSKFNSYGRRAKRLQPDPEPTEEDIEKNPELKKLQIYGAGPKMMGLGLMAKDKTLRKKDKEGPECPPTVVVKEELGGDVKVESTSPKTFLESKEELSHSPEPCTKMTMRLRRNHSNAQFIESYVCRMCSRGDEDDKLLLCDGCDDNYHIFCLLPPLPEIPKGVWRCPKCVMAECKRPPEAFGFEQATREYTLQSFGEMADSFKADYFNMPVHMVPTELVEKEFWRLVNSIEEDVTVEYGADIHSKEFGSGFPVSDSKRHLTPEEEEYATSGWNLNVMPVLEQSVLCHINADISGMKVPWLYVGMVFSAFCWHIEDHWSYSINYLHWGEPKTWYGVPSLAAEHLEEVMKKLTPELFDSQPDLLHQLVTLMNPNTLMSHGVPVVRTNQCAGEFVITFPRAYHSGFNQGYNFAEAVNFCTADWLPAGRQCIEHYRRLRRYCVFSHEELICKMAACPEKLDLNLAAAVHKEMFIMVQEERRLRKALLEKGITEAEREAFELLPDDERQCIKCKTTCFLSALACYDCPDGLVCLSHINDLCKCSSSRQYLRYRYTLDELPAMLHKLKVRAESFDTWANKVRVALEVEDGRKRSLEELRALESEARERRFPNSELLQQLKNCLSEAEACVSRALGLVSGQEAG

As to “KDM5C^1–839 D343A (from UniProt P41229-1 1-839) (domain or fragment)”, the Kd in data set [1] is 4.7 µM; in data set [2], 8.4 µM; in [3], 8.9 µM; in data set [4], 3.2 µM.
As for H3K4me3 147 bp core nucleosome, the Kd in data set [5] (Hill n 2.3, histone H3K4me3) was found to be 6.9 µM; in data set [6] (setting [14]), 3.7 µM; in data set [7] (Hill n 2.4, histone H3K4me3) it was 20 µM; in data set [8] (setting [14]), 2.3 µM; in [9] (setting [14]), 8.9 µM.
For unmodified 147 bp core nucleosome, the Kd in data set [5] (setting [15]) is more than 12.5 µM; in data set [7] (setting [15]), more than 35 µM; in data set [10], more than 45 µM; in data set [9] (500 nM 20 bp …), 8.4 µM.
In data set [5] (scale: fold gain in affinity vs 147 bp nucleosome), unmodified 187 bp nucleosome registered a binding signal of 3. Besides, the Kd in data set [6] (500 nM 20 bp …) was determined as 1 µM; in data set [8] (500 nM 20 bp …), 1 µM; in data set [9] (500 nM 20 bp …) it was 3.2 µM.
For the substance “KDM5C^(1–839 ΔAP) (from UniProt P41229-1 1-82; P41229-1 379-839) (domain or fragment)”, the fold reduction in affinity against KDM5C^1–839 in data set [2] and in data set [3] was 3 fold in each case.
The substance 147 bp 601 DNA yielded a binding signal in data set [11] of 22.
For “KDM5C^1–839 A388P (from UniProt P41229-1 1-839) (domain or fragment)”, the fold gain in affinity against the H3K4me3 core nucleosome in data set [1] worked out at 2 fold. For the same substance, the Kd in [4] was 1 µM.
The substance “KDM5C^1–839 D87G (from UniProt P41229-1 1-839) (domain or fragment)” registered a catalytic efficiency kmax/Km^app of demethylation of the 187 bp H3K4me3 nucleosome (TR-FRET, single turnover), against wild type KDM5C^1–839 in data set [12] of 2 fold. The fold gain in affinity against the H3K4me3 core nucleosome in [1] came out at 2 fold. Moreover, the Kd in data set [4] came to 1 µM. Moreover, the catalytic efficiency kmax/Km^app of demethylation of the H3K4me3 core nucleosome (TR-FRET, single turnover), increase against wild type KDM5C^1–839 in data set [13] came to 3 fold.
Consider “KDM5C^1–839 (from UniProt P41229-1 1-839) (domain or fragment)”, for which the Kd in [1] worked out at 7 µM; in data set [2], 13 µM; in [3], 7 µM. Moreover, in [4], the fold gain in affinity against the core (147 bp) nucleosome was 3 fold.
On to H3K4me3 187 bp nucleosome, for which the Kd in data set [5] (histone H3K4me3) stood at 7.3 µM; in [6] (setting [14]), 1.8 µM; in data set [8] (setting [14]), 1.3 µM; in [9] (setting [14]), 4.7 µM.
